The values below come from paper PMC4939875 (Nature, 2016).

For one data set, the system named is histones H3–H4. In words: Pull-down with recombinant histones H3–H4. The class given is binding. To be noted: GST-ARD with H3–H4 tetramers, 20 mM Tris pH 7.5, 0.5 M NaCl, 23 °C, 1 h; IVT full length TONSL with H3.1–H4 beads, 2 h.
The next data set concerns U-2-OS cells. The experiment in a line: Clonogenic assay upon GFP-TONSL induction. The class given is cell-based. To be noted: siTONSL; presence and absence of CPT 50 nM 24 h; 12-15 days; +tet.

B1: WT: human TONSL Ankyrin Repeat Domain (residues 512–692), wild type (protein)
chain: GHLGRRKGSKWNRRNDMGETLLHRACIEGQLRRVQDLVRQGHPLNPRDYCGWTPLHEACNYGHLEIVRFLLDHGAAVDDPGGQGCEGITPLHDALNCGHFEVAELLLERGASVTLRTRKGLSPLETLQQWVKLYRRDLDLETRQKARAMEMLLQAAASGQDPHSSQAFHTPSSLLFDPETS
modifications: left off: GST, end not stated, cleaved
Consider B1, for which the “direct binding to histones H3–H4 in vitro” value in the data set with histones H3–H4 was “bound directly to histones H3–H4”.

B2: TONSL WT: siRNA resistant GFP-TONSL, wild type, inducible in U-2-OS (protein)
chain: MSLERELRQLSKAKAKAQRAGQRREEAALCHQLGELLAGHGRYAEALEQHWQELQLRERADDPLGCAVAHRKIGERLAEMEDYPAALQHQHQYLELAHSLRNHTELQRAWATIGRTHLDIYDHCQSRDALLQAQAAFEKSLAIVDEELEGTLAQGELNEMRTRLYLNLGLTFESLQQTALCNDYFRKSIFLAEQNHLYEDLFRARYNLGTIHWRAGQHSQAMRCLEGARECAHTMRKRFMESECCVVIAQVLQDLGDFLAAKRALKKAYRLGSQKPVQRAAICQNLQHVLAVVRLQQQLEEAEGRDPQGAMVICEQLGDLFSKAGDFPRAAEAYQKQLRFAELLDRPGAERAIIHVSLATTLGDMKDHHGAVRHYEEELRLRSGNVLEEAKTWLNIALSREEAGDAYELLAPCFQKALSCAQQAQRPQLQRQVLQHLHTVQLRLQPQEAPETETRLRELSVAEDEDEEEEAEEAAATAESEALEAGEVELSEGEDDTDGLTPQLEEDEELQGHLGRRKGSKWNRRNDMGETLLHRACIEGQLRRVQDLVRQGHPLNPRDYCGWTPLHEACNYGHLEIVRFLLDHGAAVDDPGGQGCEGITPLHDALNCGHFEVAELLLERGASVTLRTRKGLSPLETLQQWVKLYRRDLDLETRQKARAMEMLLQAAASGQDPHSSQAFHTPSSLLFDPETSPPLSPCPEPPSNSTRLPEASQAHVRVSPGQAAPAMARPRRSRHGPASSSSSSEGEDSAGPARPSQKRPRCSATAQRVAAWTPGPASNREAATASTSRAAYQAAIRGVGSAQSRLGPGPPRGHSKALAPQAALIPEEECLAGDWLELDMPLTRSRRPRPRGTGDNRRPSSTSGSDSEESRPRARAKQVRLTCMQSCSAPVNAGPSSLASEPPGSPSTPRVSEPSGDSSAAGQPLGPAPPPPIRVRVQVQDHLFLIPVPHSSDTHSVAWLAEQAAQRYYQTCGLLPRLTLRKEGALLAPQDLIPDVLQSNDEVLAEVTSWDLPPLTDRYRRACQSLGQGEHQQVLQAVELQGLGLSFSACSLALDQAQLTPLLRALKLHTALRELRLAGNRLGDKCVAELVAALGTMPSLALLDLSSNHLGPEGLRQLAMGLPGQATLQSLEELDLSMNPLGDGCGQSLASLLHACPLLSTLRLQACGFGPSFFLSHQTALGSAFQDAEHLKTLSLSYNALGAPALARTLQSLPAGTLLHLELSSVAAGKGDSDLMEPVFRYLAKEGCALAHLTLSANHLGDKAVRDLCRCLSLCPSLISLDLSANPEISCASLEELLSTLQKRPQGLSFLGLSGCAVQGPLGLGLWDKIAAQLRELQLCSRRLCAEDRDALRQLQPSRPGPGECTLDHGSKLFFRRL
modifications: left off: GFP, end not stated, kept
In the case of B2, in the data set with U-2-OS cells, the “viability of TONSL depleted cells (colony formation)” value is recorded as “partially rescued viability”.

B3: Full length TONSL: in vitro-translated full length TONSL (protein)
chain: B2 chain
modifications: 35S-methionine
Turning to B3, in the data set with histones H3–H4, the “direct binding to histones H3–H4 in vitro” value is “bound directly to histones H3–H4”.
